Test results: PMC6101547 (Nucleic Acids Research, 2018)
Read-outs that look alike come from different tables or passages of the source.

How the values were obtained:
[1] = biological target: T1, Rim1 (mitochondrial SSB) (Saccharomyces cerevisiae, UniProt P32445 17-135); assay: FRET titration
T1 sequence: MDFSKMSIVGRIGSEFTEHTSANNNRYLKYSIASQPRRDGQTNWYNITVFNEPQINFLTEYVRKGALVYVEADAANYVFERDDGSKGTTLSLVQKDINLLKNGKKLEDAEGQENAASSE

[2] = biological target: T1, Rim1 (mitochondrial SSB); assay: Cy3 fluorescence titration
[3] = biological target: the molecule itself; assay: AUC
[4] = biological target: the molecule itself; assay: AUC; remark: listed apart in the source
[5] = biological target: T1, Rim1 (mitochondrial SSB); assay: FRET titration; remark: listed apart in the source
[6] = biological target: T1, Rim1 (mitochondrial SSB); assay: FRET titration; remark: listed apart in the source
[7] = biological target: T1, Rim1 (mitochondrial SSB); assay: sedimentation equilibrium
[8] = biological target: T2, Rim1 Y85H (Saccharomyces cerevisiae, UniProt P32445 17-135, Y85H); assay: sedimentation equilibrium
T2 sequence: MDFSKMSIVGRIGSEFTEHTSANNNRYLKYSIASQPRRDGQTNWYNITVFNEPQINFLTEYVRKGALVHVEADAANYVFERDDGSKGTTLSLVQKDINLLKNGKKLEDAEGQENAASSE

[9] = biological target: T1, Rim1 (mitochondrial SSB); assay: Cy3 fluorescence titration; remark: listed apart in the source
[10] = biological target: T1, Rim1 (mitochondrial SSB); assay: Cy3 fluorescence titration; remark: listed apart in the source
[11] = biological target: the molecule itself; assay: AUC; remark: listed apart in the source
[12] = biological target: T1, Rim1 (mitochondrial SSB); assay: Cy3 fluorescence titration; remark: listed apart in the source

Binder: TTTTTTTTTTTTTTTTTTTTTTTTTTTTTTTTTTTTTTTTT (ssDNA, internal Cy3 before last T) [Cy5.5-dT40-Cy3-T]
- binding result [1]: binds

Binder: TTTTTTTTTTTTTTTTTTTTT (ssDNA, internal Cy3 before last T) [dT20-Cy3-T]
- binding result [2]: binds

B1: Rim1 harboring the mutation Y85H (amino acids 17-135) (natural protein, S. cerevisiae, UniProt P32445 17-135, looked up)
chain: MDFSKMSIVGRIGSEFTEHTSANNNRYLKYSIASQPRRDGQTNWYNITVFNEPQINFLTEYVRKGALVHVEADAANYVFERDDGSKGTTLSLVQKDINLLKNGKKLEDAEGQENAASSE
- stoichiometry N [3]: 4
- stoichiometry N [4]: 2

Binder: TTTTTTTTTTTTTTTTTTTTTTTTTTTTTTTTTTTTTTTTTTTTTT (ssDNA, internal Cy3 before last T) [Cy5.5-dT45-Cy3-T]
- binding result [5]: binds

B2: Cy5-dT68-Cy3-T (ssDNA)
DNA: TTTTTTTTTTTTTTTTTTTTTTTTTTTTTTTTTTTTTTTTTTTTTTTTTTTTTTTTTTTTTTTTTTTTT
modifications: internal Cy3 before last T
- binding result [6]: binds

Binder: TTTTTTTTTTTTTTT (ssDNA) [Cy3-labeled dT15 (AUC)]
- binding result [7]: binds
- binding result [8]: binds

Binder: TTTTTTTTTTTTTTTTTTTT (ssDNA) [Cy3-labeled dT20 (AUC)]
- binding result [8]: binds

Binder: TTTTTTTTTTTTTTTTTTTTTTTTTTTTT (ssDNA, internal Cy3 before last T) [dT28-Cy3-T]
- binding result [9]: binds

Binder: TTTTTTTTTTTTTTTT (ssDNA, internal Cy3 before last T) [dT15-Cy3-T]
- binding result [10]: binds

B3: Human mitochondrial SSB, mitochondrial form (amino acids 17-148) (natural protein, UniProt Q04837 17-148, looked up)
chain: ESETTTSLVLERSLNRVHLLGRVGQDPVLRQVEGKNPVTIFSLATNEMWRSGDSEVYQLGDVSQKTTWHRISVFRPGLRDVAYQYVKKGSRIYLEGKIDYGEYMDKNNVRRQATTIIADNIIFLSDQTKEKE
- binding result [11]: binds

Binder: TTTTTTTTTTTTTTTTTTTTTTTTTTTTTTTTTTTTTTT (ssDNA, internal Cy3 before last T) [dT38-Cy3-T]
- binding result [12]: binds
